Measured values: the supplement of paper PMC7877785
± gives the uncertainty stated by the source.

Test: self-splicing fitness, log relative to wild type (ln ratio); higher = more splicing; Tetrahymena group I intron in knt gene, E. coli kanamycin selection, DiMSum; sequences stand for … in CUCUCU…GGAGGGAAAAGUUAUCAGGCAUGCACCUGGUAGCUAGUCUUUAAACCAAUAGAUUGCAUCGGUUUAAAAGGCAAGACCGUCAAAUUGCGGGAAAGGGGUCAACAGCCGUUCAGUACCAAGUCUCAGGGGAAACUUUGAGAUGGCCUUGCAAAGGGUAUGGUAAUAAGCUGACGGACAUGGUCCUAACCACGCAGCCAAGUCCUAAGUCAACAGAUCUUCUGUUGAUAUGGAUGCAGUUCACAGACUAAAUGUCGGUCGGGGAAGAUGUAUUCUUCUCAUAAGAUAUAGUCGGACCUCUCCUUAAUGGGAGCUAGCGGAUGAAGUGAUGCAACACUGGAGCCGCUGGGAACUAAUUUGUAUGCGAAAGUAUAUUGAUUAGUUUUGGAGUACUCGUGGUCG
Procedure, shortened: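 A randomised library covering all eight P1ex-region intron nucleotides was built with the intron in the knt kanamycin-resistance gene on pET-22b(+) and held in E. coli BL21(DE3). Cells were grown overnight at 37°C or 30°C on LB agar, with or without 25 μg/mL kanamycin, plus 100 μg/mL carbenicillin, 50 μM IPTG and 0.2% rhamnose, and pooled colonies were amplicon-sequenced on an Illumina HiSeq 2500. DiMSum fitness is the error-weighted combination of wild-type-normalised replicate fold changes, kanamycin versus none.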

Sequence | self-splicing fitness (ln) (30 °C) | self-splicing fitness (ln) (37 °C)
UGAAAGCAAUAUUACGUGGC | -3.37 ± 0.17 | -2.73 ± 0.25
UGACAGCAAUAUUACGAACU | -0.592 ± 0.14 | 0.0955 ± 0.17
UGACAGCAAUAUUACGAAUC | -3.49 ± 0.37 | -1.68 ± 0.31
UGACAGCAAUAUUACGACCU | -1.09 ± 0.11 | 0.0765 ± 0.14
UGACAGCAAUAUUACGACUC | -2.23 ± 0.17 | -0.483 ± 0.17
UGACAGCAAUAUUACGAGAC | -3.79 ± 0.49 | -2.72 ± 0.46
UGACAGCAAUAUUACGAGGC | -2.35 ± 0.23 | -2.95 ± 0.43
UGACAGCAAUAUUACGAUCA | -0.329 ± 0.068 | 0.116 ± 0.089
UGACAGCAAUAUUACGCAAA | -2.27 ± 0.18 | -1.73 ± 0.2
UGACAGCAAUAUUACGCAAC | -2.25 ± 0.29 | -1.24 ± 0.25
UGACAGCAAUAUUACGCCGC | -1.26 ± 0.32 | –
UGACAGCAAUAUUACGCGAU | -2.5 ± 0.15 | -1.46 ± 0.19
UGACAGCAAUAUUACGCGGA | -1.75 ± 0.12 | -1 ± 0.097
UGACAGCAAUAUUACGGCUG | -2.28 ± 0.18 | -0.623 ± 0.15
UGACAGCAAUAUUACGGGUU | -4.59 ± 0.41 | -2.79 ± 0.2
UGACAGCAAUAUUACGGUAG | -0.921 ± 0.067 | -0.41 ± 0.074
UGACAGCAAUAUUACGGUGU | -4.28 ± 0.23 | -2.52 ± 0.19
UGACAGCAAUAUUACGUCAU | -3.99 ± 0.27 | -2.48 ± 0.18
UGACAGCAAUAUUACGUCGU | -1.56 ± 0.15 | -3.25 ± 0.24
UGACAGCAAUAUUACGUCUU | -0.839 ± 0.049 | -0.539 ± 0.07
UGACAGCAAUAUUACGUGAA | -1.94 ± 0.076 | -0.332 ± 0.094
UGACAGCAAUAUUACGUGAU | -3.05 ± 0.11 | -0.351 ± 0.084
UGACAGCAAUAUUACGUGGC | -4.11 ± 0.28 | -3.11 ± 0.37
UGAGAGCAAUAUUACGAAGA | -1.45 ± 0.29 | -2.35 ± 0.42
UGAGAGCAAUAUUACGAGUA | -2.37 ± 0.49 | -2.16 ± 0.46
UGAGAGCAAUAUUACGAGUU | -3.31 ± 0.23 | -2.3 ± 0.34

Sequence | self-splicing fitness (ln) (30 °C) | self-splicing fitness (ln) (37 °C)
UGAGAGCAAUAUUACGAUCA | -1.62 ± 0.22 | -1.1 ± 0.25
UGAGAGCAAUAUUACGCACA | -2.08 ± 0.3 | -0.659 ± 0.35
UGAGAGCAAUAUUACGCCCG | -3.12 ± 0.3 | -0.718 ± 0.21
UGAGAGCAAUAUUACGCGGU | – | -0.929 ± 0.39
UGAGAGCAAUAUUACGUACG | -2.03 ± 0.13 | -1.59 ± 0.22
UGAGAGCAAUAUUACGUCAG | – | -3.02 ± 0.31
UGAGAGCAAUAUUACGUCAU | -1.71 ± 0.26 | –
UGAGAGCAAUAUUACGUCGU | -2.38 ± 0.2 | -2.64 ± 0.36
UGAUAGCAAUAUUACGAACU | -1.03 ± 0.12 | 0.402 ± 0.11
UGAUAGCAAUAUUACGACUG | 0.053 ± 0.18 | -0.49 ± 0.17
UGAUAGCAAUAUUACGAGGU | -3.79 ± 0.24 | -3.13 ± 0.25
UGAUAGCAAUAUUACGCUAU | -3.98 ± 0.47 | -2.04 ± 0.27
UGAUAGCAAUAUUACGCUGG | -1.15 ± 0.11 | -0.645 ± 0.12
UGAUAGCAAUAUUACGGAAC | – | -1.21 ± 0.42
UGAUAGCAAUAUUACGGAAU | -2.96 ± 0.18 | -2 ± 0.23
UGAUAGCAAUAUUACGGAGU | -3.8 ± 0.37 | -2.42 ± 0.41
UGAUAGCAAUAUUACGGAUC | -2.86 ± 0.22 | -2.13 ± 0.3
UGAUAGCAAUAUUACGGCAC | -2.97 ± 0.33 | -1.51 ± 0.43
UGAUAGCAAUAUUACGGCCU | -0.718 ± 0.097 | -0.609 ± 0.15
UGAUAGCAAUAUUACGGCGA | -0.745 ± 0.093 | -0.477 ± 0.13
UGAUAGCAAUAUUACGGCUA | -0.455 ± 0.14 | 0.0243 ± 0.14
UGAUAGCAAUAUUACGGGAA | -2.65 ± 0.2 | -2.44 ± 0.21
UGAUAGCAAUAUUACGGGGG | -1.83 ± 0.18 | -2.45 ± 0.28
UGAUAGCAAUAUUACGGUGA | -1.46 ± 0.16 | -0.637 ± 0.19
UGAUAGCAAUAUUACGGUUG | -0.902 ± 0.072 | 0.392 ± 0.11
UGAUAGCAAUAUUACGUAAG | -1.52 ± 0.093 | -0.601 ± 0.11

Sequence | self-splicing fitness (ln) (30 °C) | self-splicing fitness (ln) (37 °C)
UGAUAGCAAUAUUACGUACU | 0.125 ± 0.1 | -0.524 ± 0.11
UGAUAGCAAUAUUACGUAUU | -3.26 ± 0.25 | -2.34 ± 0.29
UGAUAGCAAUAUUACGUGCC | -2.61 ± 0.2 | -1.26 ± 0.2
UGAUAGCAAUAUUACGUUAG | -1.92 ± 0.1 | -1.57 ± 0.15
UGAUAGCAAUAUUACGUUAU | -3.61 ± 0.18 | -2.52 ± 0.17
UGAUAGCAAUAUUACGUUUU | -3.75 ± 0.16 | -1.85 ± 0.14
UGCAAGCAAUAUUACGAAAC | – | -2.65 ± 0.36
UGCAAGCAAUAUUACGACAU | -1.679 ± 0.013 | -0.674 ± 0.032
UGCAAGCAAUAUUACGACGG | -0.954 ± 0.074 | -0.946 ± 0.079
UGCAAGCAAUAUUACGAGAG | -3.4 ± 0.2 | -2.97 ± 0.21
UGCAAGCAAUAUUACGAUAG | -1.09 ± 0.067 | -0.0803 ± 0.085
UGCAAGCAAUAUUACGCCAU | -4.18 ± 0.42 | -1.87 ± 0.29
UGCAAGCAAUAUUACGCCCG | -0.288 ± 0.18 | 0.109 ± 0.2
UGCAAGCAAUAUUACGCCGU | -2.38 ± 0.36 | -1.81 ± 0.25
UGCAAGCAAUAUUACGCGUU | -2.66 ± 0.16 | -1.29 ± 0.14
UGCAAGCAAUAUUACGCUAA | -2.73 ± 0.17 | 0.000151 ± 0.11
UGCAAGCAAUAUUACGCUCA | -0.11 ± 0.16 | 0.138 ± 0.2
UGCAAGCAAUAUUACGGAGG | -3.21 ± 0.19 | -1.42 ± 0.16
UGCAAGCAAUAUUACGGAUU | -2.63 ± 0.11 | -1.84 ± 0.14
UGCAAGCAAUAUUACGGUAA | -1.08 ± 0.12 | -0.838 ± 0.11
UGCAAGCAAUAUUACGGUGU | -3.9 ± 0.23 | -2.92 ± 0.24
UGCAAGCAAUAUUACGGUUG | -2.49 ± 0.11 | -1.88 ± 0.13
UGCAAGCAAUAUUACGUCAC | -2.88 ± 0.47 | -2.27 ± 0.24
UGCAAGCAAUAUUACGUGUC | -1.55 ± 0.09 | -3.56 ± 0.23
UGCAAGCAAUAUUACGUUCC | -3.72 ± 0.33 | -1.43 ± 0.36
UGCCAGCAAUAUUACGAAAG | -2.78 ± 0.13 | -1.4 ± 0.15
